Experimental findings from patent publication US20220064295A1 (ITABMED HK, published 2022) are described below.

Holding throughout (test): BLI (Octet), antigen-Fc captured on anti-human Fc (AHC) biosensor, MSAP in solution
Experiment [1] concerns the target T1, Cynomolgus/Rhesus CD19 Protein (Fc Tag) (Sino Biological, Inc) (cynomolgus monkey (Cynomolgus/Rhesus), UniProt F7F486 20-292 (rhesus entry)).
T1 construct: Bought reagent; also called cynoCD19.Fc; cynomolgus CD19 antigen
T1 sequence: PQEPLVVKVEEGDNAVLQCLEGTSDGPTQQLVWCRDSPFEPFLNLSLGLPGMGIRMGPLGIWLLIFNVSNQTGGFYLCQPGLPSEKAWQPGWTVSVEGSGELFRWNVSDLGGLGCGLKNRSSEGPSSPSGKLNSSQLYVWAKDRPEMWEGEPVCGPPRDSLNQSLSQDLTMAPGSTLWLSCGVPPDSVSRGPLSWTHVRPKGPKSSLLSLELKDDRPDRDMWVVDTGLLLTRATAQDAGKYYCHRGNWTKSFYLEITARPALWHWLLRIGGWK
How it is done: (§1) The expression of the CD3 antigen constructs has been described in U.S. Pat. No. 8,846,042. The CD3 antigen constructs or the CD19 antigen (Cynomolgus/Rhesus CD19 Protein (Fc Tag), Sino Biological. Inc; Recombinant Human CD19 Fc Chimera, R&D Systems. Inc) were diluted to 0.02 mg/mL with dilution (PBS), and then immobilized on an anti-Human Fc capture (AHC) biosensor. […] Control wells containing PBS only were also set up. The detection results were analyzed using ForteBio Data Acquisition and ForteBio Data Analysis software.

Experiment [2] concerns the target T2, Recombinant Human CD19 Fc Chimera (R&D Systems, Inc) (human, UniProt P15391 20-291).
T2 construct: Bought reagent; also called huCD19.Fc; human CD19 antigen; Fc part of the bought chimera not given
T2 sequence (looked up): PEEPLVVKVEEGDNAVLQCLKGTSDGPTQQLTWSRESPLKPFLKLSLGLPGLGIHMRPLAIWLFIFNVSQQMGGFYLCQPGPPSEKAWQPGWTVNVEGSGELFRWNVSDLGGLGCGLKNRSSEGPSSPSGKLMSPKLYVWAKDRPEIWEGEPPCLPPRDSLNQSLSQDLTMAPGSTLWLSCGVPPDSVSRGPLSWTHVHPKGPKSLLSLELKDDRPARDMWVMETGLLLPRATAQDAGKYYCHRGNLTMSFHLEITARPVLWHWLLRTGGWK
How it is done:
as §1

The target in experiment [3] is T3, cynomolgus CD3 antigen construct cynoCD3εAA 1-27.Fc (cynomolgus monkey; human, UniProt Q95LI5 22-48).
T3 construct: range 1-27; not shown: human IgG Fc
T3 chain (looked up): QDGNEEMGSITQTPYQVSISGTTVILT
As for the experimental part: as §1

B1: ITAB2007 CD19×CD3 MSAP (bispecific antibody)
chain 1: DVVMTQSPSSIPVTLGESVSISCRSSKSLQNVNGNTYLYWFQQRPGQSPQLLIYRMSNLNSGVPDRFSGSGSGTDFTLRISGVEPEDVGVYYCMQHLEYPLTFGAGTKLEIKGGGGSGGGGSGGGGSQVQLVQSGPELIKPGGSVKMSCKASGYTFTSYVMHWVRQKPGQGLEWIGYINPYNDGTKYNEKFKGRATLTSDKSSSTAYMELSSLRSEDSAVYYCARGTYYYGSRVFDYWGQGTTVTVSSGGGGSEVQLVESGGGLVQPGGSLRLSCAASGFTFNTYAMNWVRQAPGKGLEWVARIRSKYNNYATYYADSVKDRFTISRDDSKNTLYLQMNSLRAEDTAVYYCVRHGNFGNSYVSWFAYWGQGTMVTVSSASTKGPSVFPLAPSSKSTSGGTAALGCLVKDYFPEPVTVSWNSGALTSGVHTFPAVLQSSGLYSLSSVVTVPSSSLGTQTYICNVNHKPSNTKVDKKVEPKSCPPCS
chain 2: DVVMTQSPSSIPVTLGESVSISCRSSKSLQNVNGNTYLYWFQQRPGQSPQLLIYRMSNLNSGVPDRFSGSGSGTDFTLRISGVEPEDVGVYYCMQHLEYPLTFGAGTKLEIKGGGGSGGGGSGGGGSQVQLVQSGPELIKPGGSVKMSCKASGYTFTSYVMHWVRQKPGQGLEWIGYINPYNDGTKYNEKFKGRATLTSDKSSSTAYMELSSLRSEDSAVYYCARGTYYYGSRVFDYWGQGTTVTVSSGGGGSQAVVTQEPSLTVSPGGTVTLTCRSSTGAVTTSNYANWVQQKPGQAPRGLIGGTNKRAPGTPARFSGSLLGGKAALTLSGVQPEDEAEYYCALWYSNLWVFGGGTKLTVLGQPKAAPSVTLFPPSSEELQANKATLVCLISDFYPGAVTVAWKADSSPVKAGVETTTPSKQSNNKYAASSYLSLTPEQWKSHRSYSCQVTHEGSTVEKTVAPTECPPCS
notes: One anti-CD19 scFv is fused at the N-terminus of the VH and a second at the N-terminus of the VL of an anti-CD3 Fab fragment; also called CD19×CD3 MSAP ITAB2007; bispecific trivalent ITAB2007
Consider B1, for which the dissociation constant (Kd) in experiment [1] came to 8.91 nM; in experiment [2], 0.891 nM; in experiment [3], 18.8 nM.

B2: ITAB2009 CD19×CD3 MSAP (bispecific antibody)
chain 1: EVQLVESGGGLVQPGGSLRLSCAASGFTFNTYAMNWVRQAPGKGLEWVARIRSKYNNYATYYADSVKDRFTISRDDSKNTLYLQMNSLRAEDTAVYYCVRHGNFGNSYVSWFAYWGQGTMVTVSSGGGGSGGGGSGGGGSQAVVTQEPSLTVSPGGTVTLTCRSSTGAVTTSNYANWVQQKPGQAPRGLIGGTNKRAPGTPARFSGSLLGGKAALTLSGVQPEDEAEYYCALWYSNLWVFGGGTKLTVLSGGGGSQVQLVQSGPELIKPGGSVKMSCKASGYTFTSYVMHWVRQKPGQGLEWIGYINPYNDGTKYNEKFKGRATLTSDKSSSTAYMELSSLRSEDSAVYYCARGTYYYGSRVFDYWGQGTTVTVSSASTKGPSVFPLAPSSKSTSGGTAALGCLVKDYFPEPVTVSWNSGALTSGVHTFPAVLQSSGLYSLSSVVTVPSSSLGTQTYICNVNHKPSNTKVDKKVEPKSCPPCS
chain 2: DVVMTQSPSSIPVTLGESVSISCRSSKSLQNVNGNTYLYWFQQRPGQSPQLLIYRMSNLNSGVPDRFSGSGSGTDFTLRISGVEPEDVGVYYCMQHLEYPITFGAGTKLEIKRTVAAPSVFIFPPSDEQLKSGTASVVCLLNNFYPREAKVQWKVDNALQSGNSQESVTEQDSKDSTYSLSSTLTLSKADYEKHKVYACEVTHQGLSSPVTKSFNRGECPPCS
notes: also called CD19×CD3 MSAP ITAB2009; bivalent format ITAB2009
With B2, the Kd stood at 29.6 nM in experiment [1], 18.2 nM in experiment [2] and 12.9 nM in experiment [3].
